Source: patent US20220204626A1 (REMEGEN, published 2022)
Each block holds one binder with its values, some of them ahead of it.

Assays:
CTLA-4 Protein = molecular target: T1, CTLA-4 Protein (UniProt P16410 36-161, limits assumed); experiment: ELISA, CTLA-4 Protein coated at 20 µg/ml, biotinylated sample, detection with streptavidin-HRP
T1 sequence (looked up): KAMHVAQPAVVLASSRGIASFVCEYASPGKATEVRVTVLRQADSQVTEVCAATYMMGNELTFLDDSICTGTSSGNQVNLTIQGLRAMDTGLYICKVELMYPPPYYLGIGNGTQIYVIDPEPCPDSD
Description: Hib-PDC sample well and CD80-His well: Streptavidin-HRP was diluted at 1:2000, and added at 100 μl/well. Then the plate was incubated at 37° C. for 1 h±10 min;
(§1) (11) Reading: The absorbance values were read at 450/655 nm respectively using the MD microplate reader. The concentration of the sample to be tested was used as the abscissa and the absorbance value as the ordinate to plot making a 4-PL curve, and the software automatically gave the EC50 value. (see table 7).

VEGF = VEGF (UniProt P15692-4 27-191, limits assumed); experiment: ELISA, VEGF coated at 1 µg/ml, detection with anti-His-HRP
VEGF, sequence (P15692 other isoform, or with tags, fused parts or gaps limits assumed): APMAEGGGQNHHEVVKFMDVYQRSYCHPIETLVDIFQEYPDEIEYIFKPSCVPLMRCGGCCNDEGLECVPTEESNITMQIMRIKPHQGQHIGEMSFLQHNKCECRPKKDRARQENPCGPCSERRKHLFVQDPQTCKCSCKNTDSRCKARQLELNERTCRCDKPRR
Excerpt: as §1

TGF-β1 [1] = molecular target: T2, TGF-β1 (UniProt P01137 279-390, limits assumed); experiment: ELISA, TGF-β1 coated at 2 µg/ml, detection with anti-His-HRP
T2 sequence (P01137 279-390 limits assumed): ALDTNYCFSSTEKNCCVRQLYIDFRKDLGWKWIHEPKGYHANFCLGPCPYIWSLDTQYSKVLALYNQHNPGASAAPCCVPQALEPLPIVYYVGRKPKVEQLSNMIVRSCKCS
Excerpt: as §1

TGF-β1 [2] = molecular target: T2, TGF-β1; experiment: ELISA on coated TGF-β1, ratio of EC50 values against TGF-β-R-His
Excerpt: as §1

TGF-β1 [3] = molecular target: T2, TGF-β1; experiment: ELISA, TGF-β1 coated at 2 µg/ml, detection with goat anti-human Fc-HRP
Excerpt: as §1

EC50 (CTLA-4 Protein): 50.7 nM
B1: CD80-His (ligand)
chain: VIHVTKEVKEVATLSCGHNVSVEELAQTRIYWQKEKKMVLTMMSGDMNIWPEYKNRTIFDITNNLSIVILALRPSDEGTYECVVLKYEKDAFKREHLAEVTLSVKADFPTPSISDFEIPTSNIRRIICSTSGGFPEPHLSWLENGEELNAINTTVSQDPETELYAVSSKLDFNMTTNHSFMCLIKYGHLRVNQTFNWN
modifications: biotinylated sample in the assay (sites not given)
notes: The His tag is set after the fragment only by default; also called CD80 monomer; His-tagged CD80 fragment; not shown: His tag

EC50 (VEGF): 2150 nM
B2: VEGF-R-His (receptor)
chain: GRPFVEMYSEIPEIIHMTEGRELVIPCRVTSPNITVTLKKFPLDTLIPDGKRIIWDSRKGFIISNATYKEIGLLTCEATVNGHLYKTNYLTHRQTNTIIDVVLSPSHGIELSVGEKLVLNCTARTELNVGIDFNWEYPSSKHQHKKLVNRDLKTQSGSEMKKFLSTLTIDGVTRSDQGLYTCAASSGLMTKKNSTFVRVHEP
notes: The His tag is set after the fragment only by default; also called VEGF receptor monomer; not shown: His tag

EC50 (TGF-β1 [1]): 11.6 nM
B3: TGF-β-R-His (receptor)
chain: TIPPHVQKSVNNDMIVTDNNGAVKFPQLCKFCDVRFSTCDNQKSCMSNCSITSICEKPQEVCVAVWRKNDENITLETVCHDPKLPYHDFILEDAASPKCIMKEKKKPGETFFMCSCSSDECNDNIIFSEEYNTSNPD
notes: The His tag is set after the fragment only by default; also called TGF-β receptor monomer; His-tagged TGF-βRII extracellular region fragment; not shown: His tag

fold better binding activity than TGF-β receptor monomer (TGF-β1 [2]): ~70 times
EC50 (TGF-β1 [3]): 0.164 nM
B4: Hib-PLT (bispecific antibody)
heavy: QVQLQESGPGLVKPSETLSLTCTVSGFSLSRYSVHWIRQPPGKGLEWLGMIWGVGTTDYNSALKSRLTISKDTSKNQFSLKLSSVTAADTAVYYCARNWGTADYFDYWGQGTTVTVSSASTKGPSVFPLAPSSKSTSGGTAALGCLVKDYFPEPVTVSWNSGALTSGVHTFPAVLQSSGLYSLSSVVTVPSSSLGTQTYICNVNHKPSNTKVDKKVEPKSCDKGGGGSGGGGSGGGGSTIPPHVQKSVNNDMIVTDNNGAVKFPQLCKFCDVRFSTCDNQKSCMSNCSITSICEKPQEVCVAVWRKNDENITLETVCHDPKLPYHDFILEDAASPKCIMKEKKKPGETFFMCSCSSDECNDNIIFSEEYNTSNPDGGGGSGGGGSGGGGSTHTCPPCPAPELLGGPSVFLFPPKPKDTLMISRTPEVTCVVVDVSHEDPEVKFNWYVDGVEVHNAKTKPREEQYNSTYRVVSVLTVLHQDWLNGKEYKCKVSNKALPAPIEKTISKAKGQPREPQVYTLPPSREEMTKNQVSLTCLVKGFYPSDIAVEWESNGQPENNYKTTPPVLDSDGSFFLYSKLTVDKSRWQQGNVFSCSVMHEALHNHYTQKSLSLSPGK
light: DIVLTQSPASLAVSPGQRATITCRASKSVHTSGYSYMHWYQQKPGQPPKLLIYLASNLESGVPARFSGSGSGTDFTLTINPVEANDTANYYCQHSGELPYTFGGGTKVEIKRTVAAPSVFIFPPSDEQLKSGTASVVCLLNNFYPREAKVQWKVDNALQSGNSQESVTEQDSKDSTYSLSSTLTLSKADYEKHKVYACEVTHQGLSSPVTKSFNRGEC
notes: also called fusion protein Hib-PLT; Hibody bispecific fusion protein Hib-PLT
